According to the supplement of paper PMC10567573:

B1: EPB41L3 (parent)
chain: SELGDYDPDECGSDYISEFRFAPN
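Further: lentivirally expressed fusions sorted by FACS into six bins by GFP to DsRed ratio, PSI derived from sequencing read proportions per bin multiplied by bin number.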

Variants of: B1
Experiment: protein stability index of a GFP-peptide fusion (GPS, HEK-293T) (PSI 1-6); higher = more stable
Settings: c terminus: a fixed tail appended
SELGDYDPDWCGSDYISEFRFAPN [E10W] gave a protein stability index of 1.91.
SELGDYDPDQCGSDYISEFRFAPN [E10Q] showed a protein stability index of 1.84.
Variant SELGDYDPDHCGSDYISEFRFAPN [E10H] has a protein stability index of 1.5.
SELGDYDPDDCGSDYISEFRFAPN [E10D] showed a protein stability index of 1.81.
SELGDYDPDKCGSDYISEFRFAPN [E10K] gave a protein stability index of 1.85.
SELGDYDPDVCGSDYISEFRFAPN [E10V] gave a protein stability index of 2.06.
With SELGDYDPDMCGSDYISEFRFAPN [E10M] the protein stability index was 1.75.
With SELGDYDPDICGSDYISEFRFAPN [E10I] the protein stability index was 1.45.
With SELGDYDPDLCGSDYISEFRFAPN [E10L] the protein stability index was 1.61.
SELGDYDPDECGSDYISEFRFAPL [N24L] gave a protein stability index of 2.02.
In the case of SELGDYDPDECGSDYISEFRFAPD [N24D], the protein stability index is reported as 2.89.
Work on SELGDYDPDECGSDYISEFRFAPK [N24K] yielded a protein stability index of 1.69.
In the case of SELGDYDPDECGSDYISEFRFAPC [N24C], the protein stability index is reported as 1.64.
Work on SELGDYDPDECGSDYISEFRFAPH [N24H] yielded a protein stability index of 1.66.
For SELGDYDPDECGSDYISEFRFAPS [N24S], the protein stability index was 1.87.
With SELGDYDPDECGSDYISEFRFAPI [N24I] the protein stability index was 2.55.
With SELGDYDPDECGSDYISEFRFAPM [N24M] the protein stability index was 1.79.
In the case of SELGDYDPDECGSDYSSEFRFAPN [I16S], the protein stability index is reported as 4.05.
Work on SELGDYDPDECGSDYWSEFRFAPN [I16W] yielded a protein stability index of 3.24.
With SELGDYDPDECGSDYPSEFRFAPN [I16P] the protein stability index was 3.7.
SELGDYDPDECGSDYDSEFRFAPN [I16D] showed a protein stability index of 4.99.
SELGDYDPDECGSDYYSEFRFAPN [I16Y] showed a protein stability index of 3.47.
In the case of SELGDYDPDECGSDYNSEFRFAPN [I16N], the protein stability index is reported as 4.52.
SELGDYDPDECGSDYLSEFRFAPN [I16L] gave a protein stability index of 2.56.
Variant SELGDYDPDECGSDYVSEFRFAPN [I16V] has a protein stability index of 2.76.
Work on SELGDYDPDECGSDYISELRFAPN [F19L] yielded a protein stability index of 3.84.
Work on SELGDYDPDECGSDYISEMRFAPN [F19M] yielded a protein stability index of 3.91.
For SELGDYDPDECGSDYISEPRFAPN [F19P], the protein stability index was 4.97.
SELGDYDPDECGSDYISEDRFAPN [F19D] showed a protein stability index of 5.28.
In the case of SELGDYDPDECGSDYISEIRFAPN [F19I], the protein stability index is reported as 4.67.
SELGDYDPDECGSDYISEWRFAPN [F19W] showed a protein stability index of 2.61.
With SELGDYDPDECGSDYISEVRFAPN [F19V] the protein stability index was 4.38.
Variant SELGDYDPDECGSDYISEFRFEPN [A22E] has a protein stability index of 4.24.
SELGDYDPDECGSDYISEFRFDPN [A22D] gave a protein stability index of 4.92.
Variant SELGDYDPDECGSDYISEFRFMPN [A22M] has a protein stability index of 3.48.
Variant SELGDYDPDECGSDYISEFRFTPN [A22T] has a protein stability index of 1.85.
Work on SELGDYDPDECGSDYISEFRFKPN [A22K] yielded a protein stability index of 4.27.
With SELGDYDPDECGSDYISEFRFWPN [A22W] the protein stability index was 3.47.
Work on SELGDYDPDECGSDYISEFFFAPN [R20F] yielded a protein stability index of 4.09.
Work on SELGDYDPDECGSDYISEFSFAPN [R20S] yielded a protein stability index of 4.68.
With SELGDYDPDECGSDYISEFLFAPN [R20L] the protein stability index was 4.02.
Variant SELGDYDPDECGSDYISEFQFAPN [R20Q] has a protein stability index of 4.7.
Work on SELGDYDPDECGSDYISEFIFAPN [R20I] yielded a protein stability index of 3.75.
In the case of SELGDYDPDECGSDYISEFEFAPN [R20E], the protein stability index is reported as 5.02.
In the case of SELGDYDPDECGSDYISEFTFAPN [R20T], the protein stability index is reported as 4.18.
With SELGDYDPVECGSDYISEFRFAPN [D9V] the protein stability index was 1.87.
With SELGDYDPCECGSDYISEFRFAPN [D9C] the protein stability index was 1.92.
For SELGDYDPGECGSDYISEFRFAPN [D9G], the protein stability index was 2.03.
Variant SELGDYDPYECGSDYISEFRFAPN [D9Y] has a protein stability index of 1.99.
In the case of SELGDYYPDECGSDYISEFRFAPN [D7Y], the protein stability index is reported as 1.7.
Work on SELGDYTPDECGSDYISEFRFAPN [D7T] yielded a protein stability index of 1.57.
With SELGDYHPDECGSDYISEFRFAPN [D7H] the protein stability index was 2.14.
SELGDYEPDECGSDYISEFRFAPN [D7E] gave a protein stability index of 3.01.
Work on SELGDYPPDECGSDYISEFRFAPN [D7P] yielded a protein stability index of 2.31.
SELGDYAPDECGSDYISEFRFAPN [D7A] gave a protein stability index of 1.91.
With SELGDYQPDECGSDYISEFRFAPN [D7Q] the protein stability index was 1.37.
In the case of SELGDYIPDECGSDYISEFRFAPN [D7I], the protein stability index is reported as 1.65.
SELGDYSPDECGSDYISEFRFAPN [D7S] showed a protein stability index of 1.47.
With SELGDYDPDECGWDYISEFRFAPN [S13W] the protein stability index was 2.22.
SELGDYDPDECGFDYISEFRFAPN [S13F] showed a protein stability index of 2.11.
Variant SELGDYDPDECGADYISEFRFAPN [S13A] has a protein stability index of 2.08.
Work on SELGDYDPDECGVDYISEFRFAPN [S13V] yielded a protein stability index of 1.76.
SELGDYDPDECGHDYISEFRFAPN [S13H] gave a protein stability index of 2.1.
SELGDYDPDECGYDYISEFRFAPN [S13Y] gave a protein stability index of 1.91.
Work on SELGDYDPDECGIDYISEFRFAPN [S13I] yielded a protein stability index of 2.37.
Variant SELGDYDPDECGLDYISEFRFAPN [S13L] has a protein stability index of 1.97.
For SELGDYDPDECGPDYISEFRFAPN [S13P], the protein stability index was 2.28.
For SELGDYDPDECGNDYISEFRFAPN [S13N], the protein stability index was 2.34.
SELGDYDPDECGMDYISEFRFAPN [S13M] showed a protein stability index of 2.
With SELGDYDPDECGQDYISEFRFAPN [S13Q] the protein stability index was 2.09.
In the case of SELGDYDPDECGCDYISEFRFAPN [S13C], the protein stability index is reported as 1.84.
SELGDYDPDECTSDYISEFRFAPN [G12T] showed a protein stability index of 1.93.
For SELGDYDPDECASDYISEFRFAPN [G12A], the protein stability index was 2.02.
With SELGDYDPDECCSDYISEFRFAPN [G12C] the protein stability index was 1.55.
Work on SELGDYDPDECHSDYISEFRFAPN [G12H] yielded a protein stability index of 2.22.
Variant SELGDYDPDECFSDYISEFRFAPN [G12F] has a protein stability index of 1.72.
Variant SELGDYDPDECDSDYISEFRFAPN [G12D] has a protein stability index of 3.19.
Work on SELGDYDPDECLSDYISEFRFAPN [G12L] yielded a protein stability index of 2.15.
Work on SELGDYDPDECGSDYISEFRGAPN [F21G] yielded a protein stability index of 5.01.
Variant SELGDYDPDECGSDYISEFRDAPN [F21D] has a protein stability index of 4.68.
Work on SELGDYDPDECGSDYISEFRWAPN [F21W] yielded a protein stability index of 4.24.
In the case of SELGDYDPDECGSDYISEFRMAPN [F21M], the protein stability index is reported as 4.43.
With SELGDYDPDECGSDYISEFRVAPN [F21V] the protein stability index was 4.52.
Work on SELGDYDPDECGSDYISEFRQAPN [F21Q] yielded a protein stability index of 4.97.
In the case of SELGDYDPDECGSDYISEFRSAPN [F21S], the protein stability index is reported as 5.07.
Variant SELGDYDPDECGSDYISEFRTAPN [F21T] has a protein stability index of 4.87.
Work on SELGDYDPDECGSDYISEFRYAPN [F21Y] yielded a protein stability index of 4.55.
SELGDYDPDECGSDDISEFRFAPN [Y15D] gave a protein stability index of 4.23.
For SELGDYDPDECGSDRISEFRFAPN [Y15R], the protein stability index was 2.74.
For SELGDYDPDECGSDLISEFRFAPN [Y15L], the protein stability index was 2.35.
Variant SELGDYDPDECGSDPISEFRFAPN [Y15P] has a protein stability index of 1.84.
SELGDYDPDECGSDFISEFRFAPN [Y15F] gave a protein stability index of 2.18.
SELGDYDPDECGSDCISEFRFAPN [Y15C] showed a protein stability index of 2.84.
With SELHDYDPDECGSDYISEFRFAPN [G4H] the protein stability index was 1.67.
